Four molecules from patent publication US7132252B2, “Methods for detecting the interaction of compounds with cytochrome P450 using optical molecular sensors” (Invitrogen Corporation, priority 1998, dated 2006) can be followed below.

For data set [1], the target named is T1, CYP3A4 (Homo sapiens, UniProt P08684). Put plainly: Kinetics of BOMR and BR toward CYP 3A4 (FIG. 4). The class given is biochemical. Particulars: from FIG. 4 data. From the text: Whichever of the four abstractable hydrogen atoms (designated H^1 and H^2 in this representation of BOMR) is removed in the initial reaction step, with reference to Reaction Scheme 1 of FIG. 1, the hydroxylation product will spontaneously decompose to the free resorufin dye. In addition, the benzyloxy group, attached to the carbon carrying the two hydrogens designated H^2, contributes an inductive electronic effect on that carbon, which can stabilize the radical formed during abstraction of one of the H^2 hydrogens by a cytochrome P450.
Optimization of assay conditions was, and is preferably, accomplished through statistically validated Design of Experiments methodologies, using the commercial software package “Design-Expert®” produced by Stat-Ease® Inc. The data shown in FIGS. 4 and 5 were obtained with initial optimization.

In data set [2] the target is T1, CYP3A4. Put plainly: Kinetic properties of fluorogenic substrates with CYP 3A4. The format is biochemical. The text has this: For further understanding these terms in the context of this invention, attention is directed to FIG. 4 and the analysis of FIG. 4.
(§1) (respectively, MFC and MR).

Another data set deals with T2, CYP 2B6 (Homo sapiens, UniProt P20813).
T2 sequence (P20813 1-491): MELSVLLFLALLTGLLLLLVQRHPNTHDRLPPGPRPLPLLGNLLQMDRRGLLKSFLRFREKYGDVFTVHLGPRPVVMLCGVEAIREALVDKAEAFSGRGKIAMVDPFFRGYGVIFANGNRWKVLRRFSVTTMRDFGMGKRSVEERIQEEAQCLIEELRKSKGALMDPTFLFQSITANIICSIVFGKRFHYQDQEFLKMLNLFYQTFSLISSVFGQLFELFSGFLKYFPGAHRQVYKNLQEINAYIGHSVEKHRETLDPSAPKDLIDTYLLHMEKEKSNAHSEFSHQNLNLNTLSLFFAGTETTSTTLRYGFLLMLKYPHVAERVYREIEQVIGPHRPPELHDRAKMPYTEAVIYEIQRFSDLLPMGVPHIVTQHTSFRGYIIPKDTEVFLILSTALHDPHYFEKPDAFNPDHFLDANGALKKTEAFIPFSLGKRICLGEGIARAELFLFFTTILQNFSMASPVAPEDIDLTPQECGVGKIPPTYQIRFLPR
Description: Kinetic properties of fluorogenic substrates with CYP 2B6. The class given is biochemical.

Substrate in data set [3]: O=C(OCOCc1ccccc1)c1ccccc1-c1c2ccc(=O)cc-2oc2cc(OCOCc3ccccc3)ccc12
Put plainly: Kinetic properties of fluorescein-based fluorogenic substrates with CYP 2C8. The class given is biochemical, human. Particulars: other: 100 mM K+ phosphate buffer, pH 7.5. As to the method:
(§2) Dibenzylfluorescein (DBF) was purchased form Gentest, Woburn, Mass. […] DBF, BOMF and DBOMF were diluted from a stock solution of 2 mM in acetonitrile to a 4×concentration of 80 μM in 100 mM K+ phosphate buffer. Seven 1:2 dilutions were made of each substrate of which 25 μl was added to the appropriate wells. […] The cytochrome P450 isozyme CYP3A4 was diluted to give a 0.5 pmol enzyme per well and added in a volume of 10 μl/well in K+ phosphate, pH 8.0. Enzymatic conversion of the substrate to products was allowed to proceed for 1 hour with fluorescence reads taken every four minutes on a fluorescence microtiter plate reader. The solution was illuminated using an 485/20 nm excitation filter and fluorescence emission was detected through a 530/25 nm the emission filter.
(§3) In deviation from the protocol described in Example 32, the phosphate-based buffer (100 mM K+ phosphate, pH 8.0) was replaced throughout the procedure by 100 mM K+ phosphate buffer, pH 7.5. […] Specifically, the substrate dibenzylfluorescein (DBF) (purchased form Gentest, Woburn, Mass.) and the sensor of the present invention DBOMF were tested for activity with CYP 2C8.

Substrate in data set [4]: O=C(OCc1ccccc1)c1ccccc1-c1c2ccc(=O)cc-2oc2cc(OCc3ccccc3)ccc12
Described as above. The format is biochemical, human. Particulars: other: 100 mM K+ phosphate buffer, pH 7.5. The procedure: as §2, §3

Substrate in data set [5]: COCOc1ccc2cc(C#N)c(=O)oc2c1
Put plainly: Kinetic properties of fluorogenic substrates with CYP 2C19. The class given is biochemical, human. Particulars: other: — = too low to quantify.

Substrate in data set [6]: CCOc1ccc2cc(C#N)c(=O)oc2c1
The description is as above. The class given is biochemical, human. Particulars: other: — = too low to quantify.

Substrate in data set [7]: CC(C)Oc1ccc2cc(C#N)c(=O)oc2c1
Described as above. The class given is biochemical, human. Conditions: other: — = too low to quantify.

Substrate in data set [8]: N#Cc1cc2ccc(OCc3ccccc3)cc2oc1=O
The description is as above. The format is biochemical, human. Particulars: other: — = too low to quantify.

Substrate in data set [9]: CCCCCCCCOCOc1ccc2cc(C#N)c(=O)oc2c1
Described as above. The class given is biochemical, human. Conditions: other: — = too low to quantify.

Substrate in data set [10]: N#Cc1cc2ccc(OCOCc3ccccc3)cc2oc1=O
Described as above. The class given is biochemical, human. Particulars: other: — = too low to quantify.

Substrate in data set [11]: CCN(CC)Cc1cc(=O)oc2cc(OC)ccc12
The data set is described as above. The class given is biochemical, human. Particulars: other: — = too low to quantify.

Substrate in data set [12]: CCOCOc1ccc2cc(C#N)c(=O)oc2c1
The data set is described as above. The format is biochemical, human. Conditions: other: — = too low to quantify.

Substrate in data set [13]: CCCCCCCCOCOc1ccc2nc3ccc(=O)cc-3oc2c1
The data set is described as above. Conditions: other: — = too low to quantify. The format is biochemical, human.

Substrate in data set [14]: COc1ccc(COc2ccc3c(C(F)(F)F)cc(=O)oc3c2)cc1
Description: Kinetic properties of fluorogenic substrates with CYP 2D6. Particulars: other: — = too low to quantify. The format is biochemical, human.
Source text: as §1

Substrate in data set [15]: CC(C)Oc1ccc2cc(C#N)c(=O)oc2c1
The data set is described as above. The format is biochemical, human. Particulars: other: — = too low to quantify.
Source text: as §1

Substrate in data set [16]: COc1ccc(COc2ccc3nc4ccc(=O)cc-4oc3c2)cc1
Described as above. The class given is biochemical, human. Particulars: other: — = too low to quantify.
Source text: as §1

Substrate in data set [17]: COCOc1ccc2nc3ccc(=O)cc-3oc2c1
The description is as above. The class given is biochemical, human. Conditions: other: — = too low to quantify.
Source text: as §1

[18] abbreviates: turnover rate at 1.25 uM substrate, — = too low to quantify.
Setting [19] is: turnover rate at 10 uM substrate, — = too low to quantify.

T1 sequence (P08684 whole entry): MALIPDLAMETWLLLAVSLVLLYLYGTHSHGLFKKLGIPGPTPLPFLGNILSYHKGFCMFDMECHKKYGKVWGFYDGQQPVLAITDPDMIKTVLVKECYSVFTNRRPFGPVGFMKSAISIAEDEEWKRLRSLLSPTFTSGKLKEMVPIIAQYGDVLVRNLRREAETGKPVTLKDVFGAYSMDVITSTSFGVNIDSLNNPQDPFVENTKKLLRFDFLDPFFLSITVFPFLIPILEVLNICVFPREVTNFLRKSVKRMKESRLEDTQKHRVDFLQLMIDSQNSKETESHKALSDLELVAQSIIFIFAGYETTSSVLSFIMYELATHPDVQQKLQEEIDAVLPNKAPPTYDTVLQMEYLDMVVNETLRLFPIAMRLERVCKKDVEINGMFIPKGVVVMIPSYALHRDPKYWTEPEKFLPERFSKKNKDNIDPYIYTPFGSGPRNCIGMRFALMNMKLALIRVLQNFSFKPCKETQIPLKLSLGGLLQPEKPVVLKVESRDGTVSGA

Take `O=c1ccc2nc3ccc(OCc4ccccc4)cc3oc-2c1` [BR, Benzylresorufin, reference compound]: the “turnover rate (kcat)” value at CYP3A4 [1] was found to be 0.00167 s⁻¹. Also, the Km on CYP3A4 [1] (human, CYP 3A4 enzyme) came to 5.3 µM. Also, the type of kinetics entry on CYP3A4 [2] is given as “Michaelis-Menten”; at CYP 2B6, “notMichaelis-Menten”. Further, the entries for the “v (1.25 uM)” value on CYP3A4 [2] (setting [18]) and at CYP 2B6 (setting [18]) were 0.02 min⁻¹ and 0.42 min⁻¹, respectively. The “v (10 uM)” value at CYP3A4 [2] (setting [19]) was 0.08 min⁻¹; on CYP 2B6 (setting [19]), 0.42 min⁻¹.

B1: CYP 2C8 (Homo sapiens) (protein)
chain: MEPFVVLVLCLSFMLLFSLWRQSCRRRKLPPGPTPLPIIGNMLQIDVKDICKSFTNFSKVYGPVFTVYFGMNPIVVFHGYEAVKEALIDNGEEFSGRGNSPISQRITKGLGIISSNGKRWKEIRRFSLTTLRNFGMGKRSIEDRVQEEAHCLVEELRKTKASPCDPTFILGCAPCNVICSVVFQKRFDYKDQNFLTLMKRFNENFRILNSPWIQVCNNFPLLIDCFPGTHNKVLKNVALTRSYIREKVKEHQASLDVNNPRDFIDCFLIKMEQEKDNQKSEFNIENLVGTVADLFVAGTETTSTTLRYGLLLLLKHPEVTAKVQEEIDHVIGRHRSPCMQDRSHMPYTDAVVHEIQRYSDLVPTGVPHAVTTDTKFRNYLIPKGTTIMALLTSVLHDDKEFPNPNIFDPGHFLDKNGNFKKSDYFMPFSAGKRICAGEGLARMELFLFLTTILQNFNLKSVDDLKNLNTTAVTKGIVSLPPSYQICFIPV
In the case of B1, in data set [3], the Km amounted to 3.6 µM, the kcat worked out at 0.035 s⁻¹ and the catalytic efficiency (kcat/Km) amounted to 9722 M⁻¹ s⁻¹. In data set [4], the Km is 2.0 µM, the catalytic constant (kcat) turned out to be 0.0067 s⁻¹ and the kcat/Km was 3333 M⁻¹ s⁻¹.

B2: CYP 2C19 (Homo sapiens) (protein)
chain: MDPFVVLVLCLSCLLLLSIWRQSSGRGKLPPGPTPLPVIGNILQIDIKDVSKSLTNLSKIYGPVFTLYFGLERMVVLHGYEVVKEALIDLGEEFSGRGHFPLAERANRGFGIVFSNGKRWKEIRRFSLMTLRNFGMGKRSIEDRVQEEARCLVEELRKTKASPCDPTFILGCAPCNVICSIIFQKRFDYKDQQFLNLMEKLNENIRIVSTPWIQICNNFPTIIDYFPGTHNKLLKNLAFMESDILEKVKEHQESMDINNPRDFIDCFLIKMEKEKQNQQSEFTIENLVITAADLLGAGTETTSTTLRYALLLLLKHPEVTAKVQEEIERVIGRNRSPCMQDRGHMPYTDAVVHEVQRYIDLIPTSLPHAVTCDVKFRNYLIPKGTTILTSLTSVLHDNKEFPNPEMFDPRHFLDEGGNFKKSNYFMPFSAGKRICVGEGLARMELFLFLTFILQNFNLKSLIDPKDLDTTPVVNGFASVPPFYQLCFIPV
As for B2, the Km in data set [5] was determined as 3.2 µM; in data set [6] it was 41.0 µM; in data set [7], 57.2 µM; in [8], 6.4 µM; in [9], 6.9 µM; in data set [10], 14.0 µM. Besides, the Michaelis constant (Km) in data set [11] was determined as 8.5 µM; in data set [12] it was 16.6 µM; in data set [13], 0.7 µM. The kcat in [5] worked out at 0.00833 s⁻¹; in data set [6], 0.0283 s⁻¹; in data set [7] it was 0.0325 s⁻¹; in data set [8] it was 0.00167 s⁻¹; in data set [9], 0.0283 s⁻¹; in [10], 0.0317 s⁻¹. The kcat in [11] was 0.0067 s⁻¹; in [12] it was 0.095 s⁻¹; in data set [13], 0.00283 s⁻¹. Besides, the kcat/Km in data set [5] is 2060 M⁻¹ s⁻¹; in [6], 671 M⁻¹ s⁻¹; in data set [7], 568 M⁻¹ s⁻¹; in [8], 234 M⁻¹ s⁻¹; in [9], 4106 M⁻¹ s⁻¹; in [10] it was 2260 M⁻¹ s⁻¹. The kcat/Km in [11] was found to be 784 M⁻¹ s⁻¹; in data set [12], 5720 M⁻¹ s⁻¹; in data set [13] it was 4048 M⁻¹ s⁻¹.

B3: CYP 2D6 (Homo sapiens) (protein)
chain: MGLEALVPLAVIVAIFLLLVDLMHRRQRWAARYPPGPLPLPGLGNLLHVDFQNTPYCFDQLRRRFGDVFSLQLAWTPVVVLNGLAAVREALVTHGEDTADRPPVPITQILGFGPRSQGVFLARYGPAWREQRRFSVSTLRNLGLGKKSLEQWVTEEAACLCAAFANHSGRPFRPNGLLDKAVSNVIASLTCGRRFEYDDPRFLRLLDLAQEGLKEESGFLREVLNAVPVLLHIPALAGKVLRFQKAFLTQLDELLTEHRMTWDPAQPPRDLTEAFLAEMEKAKGNPESSFNDENLRIVVADLFSAGMVTTSTTLAWGLLLMILHPDVQRRVQQEIDDVIGQVRRPEMGDQAHMPYTTAVIHEVQRFGDIVPLGVTHMTSRDIEVQGFRIPKGTTLITNLSSVLKDEAVWEKPFRFHPEHFLDAQGHFVKPEAFLPFSAGRRACLGEPLARMELFLFFTSLLQHFSFSVPTGQPRPSHHGVFAFLVSPSPYELCAVPR
On to B3, for which the Km in data set [14] is 5.0 µM; in data set [15] it was 18 µM; in data set [16], 3.1 µM; in data set [17] it was 8 µM. In addition, the kcat in data set [14] stood at 0.01 s⁻¹; in data set [15], 0.0017 s⁻¹; in data set [16], 0.000817 s⁻¹; in [17], 0.00567 s⁻¹. Further, the kcat/Km in [14] came out at 2067 M⁻¹ s⁻¹; in data set [15], 93 M⁻¹ s⁻¹; in data set [16], 263 M⁻¹ s⁻¹; in data set [17], 708 M⁻¹ s⁻¹.

By Km is commonly meant the concentration of substrate that gives half-maximal velocity. As usually defined, the kcat is the number of substrate molecules converted per active site and unit of time at saturation. As a reminder, the kcat/Km is the turnover number divided by the Michaelis constant.
